Here are results for one protein from article PMC10164138 (Structure (London, England : 1993), 2023).

The series concerns the molecule itself. The experiment in a line: cryo-EM structure.

B1: CfaB, major pilin subunit of CFA/I pili (natural protein, enterotoxigenic Escherichia coli (ETEC), UniProt P0CK93 24-170, looked up)
chain: VEKNITVTASVDPAIDLLQADGNALPSAVKLAYSPASKTFESYRVMTQVHTNDATKKVIVKLADTPQLTDVLNSTVQMPISVSWGGQVLSTTAKEFEAAALGYSASGVNGVSSSQELVISAAPKTAGTAPTAGNYSGVVSLVMTLGS
Take B1: the binding result is recorded as “binds”.
